Assay results taken from patent US20170275344A1, “POLYPEPTIDES AND USES THEREOF AS A DRUG FOR TREATMENT OF AUTOIMMUNE DISORDERS” (Compugen Ltd., priority 2014, published 2017).

How the values were obtained:
SJL/J mice = assay: Adoptive transfer R-EAE, clinical score; type: in vivo, mouse
Description: Female SJL/J mice were primed with 50 ug of PLP139-151/CFA according to the standard laboratory protocol on day 0. On day 8 post disease induction, the inguinal lymph nodes were collected and the total lymph node cells were re-activated in culture in the presence of PLP139-151 for 3 days. At the end of culture, cells were collected and transferred into naive recipient SJL/J mice.
a. Mice were shaved (about a lin.xlin, square on the back between the hind flanks) and injected with CFA/PLP139-151 emulsion at 100 μl per mouse s.c., divided between three spots on the back and flanks. Peptide and final dose given per mouse: 50 μg of PLP139-151 peptide on day 0.
b. On day 8 post priming with PLP139-151/CFA, the draining inguinal lymph nodes were collected, and single cell suspensions were prepared. Total lymph node cells were cultured at a density of 8×10^6 cells per ml in the HL-1 medium plus PLP139-151 peptide (20 μg/ml) in T75 flasks.
c. After 3 days of culture, the PLP139-151 reactivated cells were collected and counted using an hemacytometer. The number of total viable cells and the number of blast cells was determined. The percentage of blast cells expected following this protocol is 20-30% of the total viable cells.
d. Unless otherwise specified, 3×10^6 cells were transferred to each recipient mouse by intravenous injection.
f. Mice were scored on the indicated days, on a 0-5 disease score scale per standard laboratory protocol: 0, no abnormality; 1, limp tail; 2, limp tail and hind limb weakness; 3, hind limb paralysis; 4, hind limb paralysis and forelimb weakness; and 5, moribund.

male DBA-1 mice = assay: Established collagen-induced arthritis (CIA), therapeutic regimen; type: in vivo, mouse
Description: Bovine type II collagen (CII) (RUNMC in house production, batch 03-04-08) at a concentration of 2 mg/ml in acetic acid 0.05M was emulsified in equal volumes of Freund's complete adjuvant (2 mg/ml of Mycobacterium tuberculosis strain H37Ra; Difco, Detroit, Mich.).
On day 0, 10-12 week old male DBA-1 mice (Janvier Elevage, France) (n=95) were immunized i.d. at the base of the tail with 100 μg of bovine CII. On day 21, mice received an intraperitoneal booster injection of 50 μg of CII dissolved in phosphate buffered saline (PBS), and the onset of arthritis occurred a few days after this booster.
Joint inflammation in each paw was scored visually, using a scale of 0-2 per paw with a maximal score of 8 per animal: 0=non inflamed, 1=mild inflammation, 1.5=marked inflammation, and 2=severe inflammation. Scoring was performed three times a week.
Treatment was started in established CIA early after onset of disease (i.e. therapeutic regimen), when the macroscopic scores per animal were between 0.25 and 1.25 (on a scale of 0-8). The i.p. injections were given three times per week for two weeks, after which the study was terminated and mice were terminally bled to collect serum. Thereafter, the knee and ankle joints were collected and stored in formalin. Histology was scored for inflammation and destruction on an arbitrary scale of 0-3, for five different parameters: • Joint inflammation • Cartilage proteoglycan (PG) depletion • Chondrocyte death • Cartilage erosion • Bone erosion
1. Negative control: PBS 2. Negative control mIgG2A (Bioxcell, BE0085): 10 mg/kg 3. C1ORF32 ECD-Fc (SEQ ID NO:42): 10 mg/kg 4. C1ORF32 ECD-Fc (SEQ ID NO:42): 5 mg/kg 5. Positive control: Enbrel (Wyeth, F01421) 5 mg/kg
Joints were fixed for at least 4 days in 4% formaldehyde, decalcified in 5% formic acid, and subsequently dehydrated and embedded in paraffin. Standard frontal sections of 7 μm were mounted on SuperFrost slides (Menzel-Glaser, Braunschweig, Germany). Haematoxylin and eosin (H&E) staining was performed to study joint inflammation. The severity of inflammation in the joints was scored on a scale of 0-3 (0=no cells, 1=mild cellularity, 2=moderate cellularity, and 3=maximal cellularity). To study proteoglycan (PG) depletion from the cartilage matrix, sections were stained with safranin O (SO) followed by counterstaining with fast green. Depletion of PG was determined using an arbitrary scale of 0-3, ranging from normal, fully stained cartilage to destained cartilage, fully depleted of PGs. Chondrocyte death was scored on a scale of 0-3 ranging from no loss of chondrocyte nuclei to complete empty cartilage surface. The degree of cartilage surface erosion was scored on a scale of 0-3, ranging from no damage to complete loss of articular cartilage. Bone destruction was graded separately on a scale of 0-3, ranging from no damage to the complete loss of bone structure. Histopathological changes in the joint were scored on three semiserial sections of the joint spaced 70 μm apart. Scoring was performed in a blindfolded manner.
Statistical analysis: Disease course data was analyzed using one-way ANOVA with repeated measures, with a Bonferroni's post-test of selected pairs to determine statistical differences between C1ORF32 ECD-Fc (SEQ ID NO:42) and Enbrel treated mice, each as compared to Control Ig (IgG2a) treated group.

B1: C1ORF32 ECD-Fc (SEQ ID NO:42): fusion protein of human C1ORF32 ECD fused to mouse immunoglobulin Fc (human-mouse fusion protein) (protein)
chain: LQVTVPDKKKVAMLFQPTVLRCHFSTSSHQPAVVQWKFKSYCQDRMGESLGMSSTRAQSLSKRNLEWDPYLDCLDSRRTVRVVASKQGSTVTLGDFYRGREITIVHDADLQIGKLMWGDSGLYYCIITTPDDLEGKNEDSVELLVLGRTGLLADLLPSFAVEIMGSENLYFQGSGEPRGPTIKPCPPCKCPAPNLLGGPSVFIFPPKIKDVLMISLSPIVTCVVVDVSEDDPDVQISWFVNNVEVHTAQTQTHREDYNSTLRVVSALPIQHQDWMSGKEFKCKVNNKDLPAPIERTISKPKGSVRAPQVYVLPPPEEEMTKKQVTLTCMVTDFMPEDIYVEWTNNGKTELNYKNTEPVLDSDGSYFMYSKLRVEKKNWVERNSYSCSVVHEGLHNHHTTKSFSRTPGK
modifications: Fusion protein human C1ORF32-ECD fused to mouse IgG2a Fc
For B1, the “clinical signs of the disease (mean clinical score)” value (SJL/J mice; 100 ug/mouse i.p. 3x/wk for 2 wks from onset of disease remission, two studies) was “robust inhibition of clinical signs of the disease”, the disease induction (SJL/J mice; study Cgen data, treatment from the time of cell transfer, 100 ug/dose i.p. 3x/wk for 2 wks) was “complete abolishment of disease induction” and the disease development (SJL/J mice; study MYC48 FACS, treatment from the time of cell transfer, 100 ug/dose i.p. 3x/wk for 2 wks) was “abolished disease development”. For the same molecule, the “clinical (macroscopic) scores of arthritis” value (male DBA-1 mice; 5 mg/kg i.p. 3x/wk for 2 wks) was “did not demonstrate any effect”, the “clinical (macroscopic) scores of arthritis” value (male DBA-1 mice; 10 mg/kg i.p. 3x/wk for 2 wks, p<0.001 vs mIgG2a) was “significantly reduced the clinical scores of arthritis” and the “histological arthritis pathology of ankle joints” value (male DBA-1 mice; 10 mg/kg, after two weeks of therapy, did not reach statistical significance) was “trend of reduced arthritis pathology”. For the same molecule, the “results over three CIA studies” value (male DBA-1 mice; three studies) was “excellent results in two studies and weak results in one study”.
